# Laboratory results reported in patent US20230183753A1, “Methods of in Vitro Cell Delivery” (Intellia Therapeutics, Inc., priority 2020, published 2023).
# Oligonucleotides are written 5' to 3', each unit as a sugar letter and its base; * is a phosphorothioate linkage, no mark a phosphodiester; rarer units and linkages stand in square brackets, end groups in braces. Plain capitals give the bases only. m = 2'-O-methyl; r = 2'-OH (RNA)
# B1: G015995: guide targeting B2M (SEQ ID NO: 711) (nucleic acid)
# guide: mU*mU*mA*rCrCrCrCrArCrUrUrArArCrUrArUrCrUrUrGrUrUrUrUrArGrAmGmCmUmAmGmAmAmAmUmAmGmCrArArGrUrUrArArArArUrArArGrGrCrUrArGrUrCrCrGrUrUrArUrCrAmAmCmUmUmGmAmAmAmAmAmGmUmGmGmCmAmCmCmGmAmGmUmCmGmGmUmGmCmU*mU*mU*mU
# Experiments:
# [1] = tested on: B2M, TRAC, TRBC1/2, CIITA; test: NGS editing profile of T cells with BC22n or Cas9 mRNA, single or four guides, LNP titration, Example 16A; assay type: cell-based, human; settings: LNP;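 also: activated T cells exposed to LNPs 72 h after activation, kept at 37 °C, harvested on day 10 post activation, editing measured by NGS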
# B2M, CD3, MHC II = test: Flow cytometry of antigen negative T cells (B2M, CD3, MHC II) after BC22n or Cas9 editing, Example 16A; assay type: cell-based, human
# Description: Cells were subsequently washed, processed on a Cytoflex instrument (Beckman Coulter) and analyzed using the FlowJo software package. T cells were gated based on size, shape, viability, and antigen expression.
# [2] = multiple guide delivery (four guides simultaneously), locus of the guide assayed, editor BC22n, total RNA 8.6 ng
# [3] = multiple guide delivery (four guides simultaneously), locus of the guide assayed, editor BC22n, total RNA 17.2 ng
# [4] = multiple guide delivery (four guides simultaneously), locus of the guide assayed, editor BC22n, total RNA 34.4 ng
# [5] = multiple guide delivery (four guides simultaneously), locus of the guide assayed, editor BC22n, total RNA 68.8 ng
# [6] = multiple guide delivery (four guides simultaneously), locus of the guide assayed, editor BC22n, total RNA 137.5 ng
# [7] = multiple guide delivery (four guides simultaneously), locus of the guide assayed, editor BC22n, total RNA 275.0 ng
# [8] = multiple guide delivery (four guides simultaneously), locus of the guide assayed, editor BC22n, total RNA 550.0 ng
# [9] = multiple guide delivery (four guides simultaneously), locus of the guide assayed, editor Cas9, total RNA 8.6 ng
# [10] = multiple guide delivery (four guides simultaneously), locus of the guide assayed, editor Cas9, total RNA 17.2 ng
# [11] = multiple guide delivery (four guides simultaneously), locus of the guide assayed, editor Cas9, total RNA 34.4 ng
# [12] = multiple guide delivery (four guides simultaneously), locus of the guide assayed, editor Cas9, total RNA 68.8 ng
# [13] = multiple guide delivery (four guides simultaneously), locus of the guide assayed, editor Cas9, total RNA 137.5 ng
# [14] = multiple guide delivery (four guides simultaneously), locus of the guide assayed, editor Cas9, total RNA 275.0 ng
# [15] = multiple guide delivery (four guides simultaneously), locus of the guide assayed, editor Cas9, total RNA 550.0 ng
# [16] = single guide delivery, editor BC22n, total RNA 8.6 ng
# [17] = single guide delivery, editor BC22n, total RNA 17.2 ng
# [18] = single guide delivery, editor BC22n, total RNA 34.4 ng
# [19] = single guide delivery, editor BC22n, total RNA 68.8 ng
# [20] = single guide delivery, editor BC22n, total RNA 137.5 ng
# [21] = single guide delivery, editor BC22n, total RNA 275.0 ng
# [22] = single guide delivery, editor BC22n, total RNA 550.0 ng
# [23] = single guide delivery, editor Cas9, total RNA 8.6 ng
# [24] = single guide delivery, editor Cas9, total RNA 17.2 ng
# [25] = single guide delivery, editor Cas9, total RNA 34.4 ng
# [26] = single guide delivery, editor Cas9, total RNA 68.8 ng
# [27] = single guide delivery, editor Cas9, total RNA 137.5 ng
# [28] = single guide delivery, editor Cas9, total RNA 275.0 ng
# [29] = single guide delivery, editor Cas9, total RNA 550.0 ng
molecule,measurement,setting,value
B1,C-to-A/G % mean,[1]; [2],3.8%
same,C-to-T % mean,[1]; [2],27.3%
same,Indel % mean,[1]; [2],2.6%
same,C-to-A/G % mean,[1]; [3],4.1%
same,C-to-T % mean,[1]; [3],47.2%
same,Indel % mean,[1]; [3],3.0%
same,C-to-A/G % mean,[1]; [4],3.9%
same,C-to-T % mean,[1]; [4],61.2%
same,Indel % mean,[1]; [4],2.6%
same,C-to-A/G % mean,[1]; [5],2.9%
same,C-to-T % mean,[1]; [5],81.4%
same,Indel % mean,[1]; [5],1.4%
same,C-to-A/G % mean,[1]; [6],2.6%
same,C-to-T % mean,[1]; [6],90.0%
same,Indel % mean,[1]; [6],1.3%
same,C-to-A/G % mean,[1]; [7],2.2%
same,C-to-T % mean,[1]; [7],94.7%
same,Indel % mean,[1]; [7],0.8%
same,C-to-A/G % mean,[1]; [8],2.9%
same,C-to-T % mean,[1]; [8],95.9%
same,Indel % mean,[1]; [8],0.4%
same,C-to-A/G % mean,[1]; [9],1.4%
same,C-to-T % mean,[1]; [9],0.3%
same,Indel % mean,[1]; [9],5.0%
same,C-to-A/G % mean,[1]; [10],1.3%
same,C-to-T % mean,[1]; [10],0.3%
same,Indel % mean,[1]; [10],10.5%
same,C-to-A/G % mean,[1]; [11],1.1%
same,C-to-T % mean,[1]; [11],0.3%
same,Indel % mean,[1]; [11],19.3%
same,C-to-A/G % mean,[1]; [12],0.9%
same,C-to-T % mean,[1]; [12],0.3%
same,Indel % mean,[1]; [12],34.4%
same,C-to-A/G % mean,[1]; [13],0.7%
same,C-to-T % mean,[1]; [13],0.2%
same,Indel % mean,[1]; [13],51.1%
same,C-to-A/G % mean,[1]; [14],0.5%
same,C-to-T % mean,[1]; [14],0.2%
same,Indel % mean,[1]; [14],68.0%
same,C-to-A/G % mean,[1]; [15],0.4%
same,C-to-T % mean,[1]; [15],0.3%
same,Indel % mean,[1]; [15],76.7%
same,C-to-A/G % mean,[1]; [16],7.7%
same,C-to-T % mean,[1]; [16],49.5%
same,Indel % mean,[1]; [16],6.0%
same,C-to-A/G % mean,[1]; [17],6.7%
same,C-to-T % mean,[1]; [17],68.5%
same,Indel % mean,[1]; [17],4.3%
same,C-to-A/G % mean,[1]; [18],5.7%
same,C-to-T % mean,[1]; [18],79.0%
same,Indel % mean,[1]; [18],3.8%
same,C-to-A/G % mean,[1]; [19],4.6%
same,C-to-T % mean,[1]; [19],88.2%
same,Indel % mean,[1]; [19],2.5%
same,C-to-A/G % mean,[1]; [20],4.1%
same,C-to-T % mean,[1]; [20],90.6%
same,Indel % mean,[1]; [20],2.2%
same,C-to-A/G % mean,[1]; [21],3.7%
same,C-to-T % mean,[1]; [21],92.6%
same,Indel % mean,[1]; [21],2.2%
same,C-to-A/G % mean,[1]; [22],2.8%
same,C-to-T % mean,[1]; [22],95.2%
same,Indel % mean,[1]; [22],1.6%
same,C-to-A/G % mean,[1]; [23],1.2%
same,C-to-T % mean,[1]; [23],0.3%
same,Indel % mean,[1]; [23],23.7%
same,C-to-A/G % mean,[1]; [24],0.9%
same,C-to-T % mean,[1]; [24],0.3%
same,Indel % mean,[1]; [24],41.1%
same,C-to-A/G % mean,[1]; [25],0.6%
same,C-to-T % mean,[1]; [25],0.3%
same,Indel % mean,[1]; [25],59.4%
same,C-to-A/G % mean,[1]; [26],0.4%
same,C-to-T % mean,[1]; [26],0.2%
same,Indel % mean,[1]; [26],76.8%
same,C-to-A/G % mean,[1]; [27],0.2%
same,C-to-T % mean,[1]; [27],0.1%
same,Indel % mean,[1]; [27],88.2%
same,C-to-A/G % mean,[1]; [28],0.1%
same,C-to-T % mean,[1]; [28],0.1%
same,Indel % mean,[1]; [28],95.1%
same,C-to-A/G % mean,[1]; [29],0.1%
same,C-to-T % mean,[1]; [29],0.1%
same,Indel % mean,[1]; [29],97.5%
same,"percent cells negative for antigen, B2M neg, Mean %","B2M, CD3, MHC II; editor BC22n, total RNA 8.6 ng",44.0%
same,"percent cells negative for antigen, B2M neg, Mean %","B2M, CD3, MHC II; editor BC22n, total RNA 17.2 ng",60.8%
same,"percent cells negative for antigen, B2M neg, Mean %","B2M, CD3, MHC II; editor BC22n, total RNA 34.4 ng",75.7%
same,"percent cells negative for antigen, B2M neg, Mean %","B2M, CD3, MHC II; editor BC22n, total RNA 68.8 ng",83.9%
same,"percent cells negative for antigen, B2M neg, Mean %","B2M, CD3, MHC II; editor BC22n, total RNA 137.5 ng",91.2%
same,"percent cells negative for antigen, B2M neg, Mean %","B2M, CD3, MHC II; editor BC22n, total RNA 275.0 ng",94.4%
same,"percent cells negative for antigen, B2M neg, Mean %","B2M, CD3, MHC II; editor BC22n, total RNA 550.0 ng",95.7%
same,"percent cells negative for antigen, B2M neg, Mean %","B2M, CD3, MHC II; editor Cas9, total RNA 8.6 ng",13.9%
same,"percent cells negative for antigen, B2M neg, Mean %","B2M, CD3, MHC II; editor Cas9, total RNA 17.2 ng",30.7%
same,"percent cells negative for antigen, B2M neg, Mean %","B2M, CD3, MHC II; editor Cas9, total RNA 34.4 ng",53.4%
same,"percent cells negative for antigen, B2M neg, Mean %","B2M, CD3, MHC II; editor Cas9, total RNA 68.8 ng",68.7%
same,"percent cells negative for antigen, B2M neg, Mean %","B2M, CD3, MHC II; editor Cas9, total RNA 137.5 ng",82.1%
same,"percent cells negative for antigen, B2M neg, Mean %","B2M, CD3, MHC II; editor Cas9, total RNA 275.0 ng",89.3%
same,"percent cells negative for antigen, B2M neg, Mean %","B2M, CD3, MHC II; editor Cas9, total RNA 550.0 ng",91.3%
